Reference: paper PMC2756588

The binders below were run against Rvs167, P39743 (assay: SPOT array). Conditions: median of control spots 2707.
Chain of Rvs167, P39743 (P39743 419-482): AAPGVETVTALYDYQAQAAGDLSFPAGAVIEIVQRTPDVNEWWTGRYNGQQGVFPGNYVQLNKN

Row | Binder | SPOT intensity
1 | GRSRLFPHSPLGRSS | 0
2 | HKVLRPFLLRRLKKD | 0
3 | RRASLFPRDPKRLRP | 0
4 | VYTRTAFQIPGDDKI | 0

The binders below were run against T1, Boi1, P38041 (assay: SPOT array). Conditions: median of control spots 1162.
T1 sequence (P38041 1-86, looked up): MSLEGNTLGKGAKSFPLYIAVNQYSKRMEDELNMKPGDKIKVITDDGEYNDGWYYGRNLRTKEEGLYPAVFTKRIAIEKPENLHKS

Row | Binder | SPOT intensity
5 | GRSRLFPHSPLGRSS | 4
6 | HKVLRPFLLRRLKKD | 1
7 | RRASLFPRDPKRLRP | 7
8 | VYTRTAFQIPGDDKI | 0

What follows are binders tested against T2, Cdc25, P04821 (assay: SPOT array). Conditions: median of control spots 969.
T2 sequence (P04821 50-136, looked up): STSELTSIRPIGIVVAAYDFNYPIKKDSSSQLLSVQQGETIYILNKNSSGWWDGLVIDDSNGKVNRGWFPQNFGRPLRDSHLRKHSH

Row | Binder | SPOT intensity
9 | GRSRLFPHSPLGRSS | 34
10 | HKVLRPFLLRRLKKD | 67
11 | RRASLFPRDPKRLRP | 148
12 | VYTRTAFQIPGDDKI | 2

Each binder was assayed against T3, Cyk3, Q07533 (assay: SPOT array). Conditions: median of control spots 1451.
T3 sequence (Q07533 1-83, looked up): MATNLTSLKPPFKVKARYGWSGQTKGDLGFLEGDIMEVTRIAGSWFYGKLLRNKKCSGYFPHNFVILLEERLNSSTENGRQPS

Row | Binder | SPOT intensity
13 | GRSRLFPHSPLGRSS | 2
14 | HKVLRPFLLRRLKKD | 3
15 | RRASLFPRDPKRLRP | 3
16 | VYTRTAFQIPGDDKI | 0

Each binder was assayed against T4, Bbc1, P47068 (assay: SPOT array). Conditions: median of control spots 796.
T4 sequence (P47068 1-78, looked up): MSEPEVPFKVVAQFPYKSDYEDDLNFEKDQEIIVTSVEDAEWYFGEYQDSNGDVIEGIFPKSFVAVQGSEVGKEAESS

Row | Binder | SPOT intensity
17 | GRSRLFPHSPLGRSS | 12
18 | HKVLRPFLLRRLKKD | 333
19 | RRASLFPRDPKRLRP | 165
20 | VYTRTAFQIPGDDKI | 0

The binders below were run against T5, Abp1, P15891 (assay: SPOT array). Conditions: median of control spots 935.
T5 sequence (P15891 535-592, looked up): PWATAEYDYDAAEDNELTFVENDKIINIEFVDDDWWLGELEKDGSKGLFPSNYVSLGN

Row | Binder | SPOT intensity
21 | GRSRLFPHSPLGRSS | 34
22 | HKVLRPFLLRRLKKD | 34
23 | RRASLFPRDPKRLRP | 95
24 | VYTRTAFQIPGDDKI | 0

These binders were tested against T6, Lsb4, P32793 (assay: SPOT array). Conditions: median of control spots 397.
T6 sequence (P32793 402-468, looked up): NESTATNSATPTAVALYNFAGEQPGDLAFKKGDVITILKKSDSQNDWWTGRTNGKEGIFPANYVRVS

Row | Binder | SPOT intensity
25 | GRSRLFPHSPLGRSS | 0
26 | HKVLRPFLLRRLKKD | 0
27 | RRASLFPRDPKRLRP | 4
28 | VYTRTAFQIPGDDKI | 0

Each binder was assayed against Bem1-1, P29366 (assay: SPOT array). Conditions: median of control spots 4282.
Chain of Bem1-1, P29366 (P29366 55-141): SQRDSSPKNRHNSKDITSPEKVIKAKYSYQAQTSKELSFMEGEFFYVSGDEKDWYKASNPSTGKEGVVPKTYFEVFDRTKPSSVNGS

Row | Binder | SPOT intensity
29 | GRSRLFPHSPLGRSS | 0
30 | HKVLRPFLLRRLKKD | 0
31 | RRASLFPRDPKRLRP | 0
32 | VYTRTAFQIPGDDKI | 0

Each binder was assayed against T7, Lsb1, P53281 (assay: SPOT array). Conditions: median of control spots 388.
T7 sequence (P53281 45-122, looked up): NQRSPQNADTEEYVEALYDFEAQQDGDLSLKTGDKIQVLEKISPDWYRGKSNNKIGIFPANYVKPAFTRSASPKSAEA

Row | Binder | SPOT intensity
33 | GRSRLFPHSPLGRSS | 0
34 | HKVLRPFLLRRLKKD | 0
35 | RRASLFPRDPKRLRP | 0
36 | VYTRTAFQIPGDDKI | 1120

These binders were tested against T8, Lsb3, P43603 (assay: SPOT array). Conditions: median of control spots 406.
T8 sequence (P43603 385-451, looked up): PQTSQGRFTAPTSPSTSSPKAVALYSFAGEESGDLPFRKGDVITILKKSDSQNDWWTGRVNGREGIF

Row | Binder | SPOT intensity
37 | GRSRLFPHSPLGRSS | 0
38 | HKVLRPFLLRRLKKD | 0
39 | RRASLFPRDPKRLRP | 2
40 | VYTRTAFQIPGDDKI | 0

What follows are binders tested against GST (assay: SPOT array). Conditions: median of control spots 978.

Row | Binder | SPOT intensity
41 | GRSRLFPHSPLGRSS | 0
42 | HKVLRPFLLRRLKKD | 0
43 | RRASLFPRDPKRLRP | 5
44 | VYTRTAFQIPGDDKI | 3

Each binder was assayed against Sho1, P40073 (assay: SPOT array). Conditions: median of control spots 1148.
Chain of Sho1, P40073 (P40073 287-367): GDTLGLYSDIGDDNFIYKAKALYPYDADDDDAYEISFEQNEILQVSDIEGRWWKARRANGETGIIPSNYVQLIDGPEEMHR

Row | Binder | SPOT intensity
45 | GRSRLFPHSPLGRSS | 21
46 | HKVLRPFLLRRLKKD | 26
47 | RRASLFPRDPKRLRP | 67
48 | VYTRTAFQIPGDDKI | 0

These binders were tested against Myo3, P36006 (assay: SPOT array). Conditions: median of control spots 468.

Row | Binder | SPOT intensity
49 | GRSRLFPHSPLGRSS | 0
50 | HKVLRPFLLRRLKKD | 0
51 | RRASLFPRDPKRLRP | 7
52 | VYTRTAFQIPGDDKI | 0

What follows are binders tested against T9, Sla1-2, P32790 (assay: SPOT array). Conditions: median of control spots 712.
T9 sequence (P32790 60-140, looked up): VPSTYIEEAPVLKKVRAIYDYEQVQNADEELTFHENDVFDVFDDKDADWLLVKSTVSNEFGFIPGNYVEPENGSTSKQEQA

Row | Binder | SPOT intensity
53 | GRSRLFPHSPLGRSS | 1
54 | HKVLRPFLLRRLKKD | 0
55 | RRASLFPRDPKRLRP | 7
56 | VYTRTAFQIPGDDKI | 1

The binders below were run against T10, Pin3, Q06449 (assay: SPOT array). Conditions: median of control spots 2171.
T10 sequence (Q06449 53-122, looked up): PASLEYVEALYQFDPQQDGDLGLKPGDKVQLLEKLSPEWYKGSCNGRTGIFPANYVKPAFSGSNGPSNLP

Row | Binder | SPOT intensity
57 | GRSRLFPHSPLGRSS | 1
58 | HKVLRPFLLRRLKKD | 4
59 | RRASLFPRDPKRLRP | 11
60 | VYTRTAFQIPGDDKI | 29

The binders below were run against T11, Sla1-3, P32790 (assay: SPOT array). Conditions: median of control spots 5475.
T11 sequence (P32790 344-424, looked up): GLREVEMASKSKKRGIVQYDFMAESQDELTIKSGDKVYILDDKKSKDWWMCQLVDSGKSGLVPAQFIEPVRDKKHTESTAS

Row | Binder | SPOT intensity
61 | GRSRLFPHSPLGRSS | 8
62 | HKVLRPFLLRRLKKD | 30
63 | RRASLFPRDPKRLRP | 158
64 | VYTRTAFQIPGDDKI | 0

These binders were tested against T12, Bzz1-2, P38822 (assay: SPOT array). Conditions: median of control spots 4538.
T12 sequence (P38822 568-633, looked up): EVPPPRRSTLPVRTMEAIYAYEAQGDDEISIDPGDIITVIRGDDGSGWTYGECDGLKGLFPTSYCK

Row | Binder | SPOT intensity
65 | GRSRLFPHSPLGRSS | 9
66 | HKVLRPFLLRRLKKD | 0
67 | RRASLFPRDPKRLRP | 35
68 | VYTRTAFQIPGDDKI | 3

The binders below were run against T13, Hse1, P38753 (assay: SPOT array). Conditions: median of control spots 1727.
T13 sequence (P38753 208-285, looked up): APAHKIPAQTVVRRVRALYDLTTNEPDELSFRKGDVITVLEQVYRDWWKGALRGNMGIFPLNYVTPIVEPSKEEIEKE

Row | Binder | SPOT intensity
69 | GRSRLFPHSPLGRSS | 9
70 | HKVLRPFLLRRLKKD | 11
71 | RRASLFPRDPKRLRP | 79
72 | VYTRTAFQIPGDDKI | 0

The binders below were run against T14, Hof1, Q05080 (assay: SPOT array). Conditions: median of control spots 4086.
T14 sequence (Q05080 590-669, looked up): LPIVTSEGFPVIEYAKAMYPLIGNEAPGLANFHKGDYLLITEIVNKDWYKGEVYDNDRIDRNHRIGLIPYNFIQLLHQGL

Row | Binder | SPOT intensity
73 | GRSRLFPHSPLGRSS | 14
74 | HKVLRPFLLRRLKKD | 0
75 | RRASLFPRDPKRLRP | 21
76 | VYTRTAFQIPGDDKI | 0

What follows are binders tested against T15, Nbp2, Q12163 (assay: SPOT array). Conditions: median of control spots 357.
T15 sequence (Q12163 103-180, looked up): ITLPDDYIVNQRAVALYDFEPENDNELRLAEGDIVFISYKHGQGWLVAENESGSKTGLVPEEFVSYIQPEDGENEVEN

Row | Binder | SPOT intensity
77 | GRSRLFPHSPLGRSS | 4
78 | HKVLRPFLLRRLKKD | 13
79 | RRASLFPRDPKRLRP | 0
80 | VYTRTAFQIPGDDKI | 0

The binders below were run against T16, Bud14, P27637 (assay: SPOT array). Conditions: median of control spots 956.
T16 sequence (P27637 247-328, looked up): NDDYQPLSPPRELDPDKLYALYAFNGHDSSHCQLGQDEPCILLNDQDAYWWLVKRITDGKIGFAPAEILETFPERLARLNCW

Row | Binder | SPOT intensity
81 | GRSRLFPHSPLGRSS | 25
82 | HKVLRPFLLRRLKKD | 21
83 | RRASLFPRDPKRLRP | 10
84 | VYTRTAFQIPGDDKI | 0

What follows are binders tested against T17, Fus1, P11710 (assay: SPOT array). Conditions: median of control spots 1200.
T17 sequence (P11710 432-512, looked up): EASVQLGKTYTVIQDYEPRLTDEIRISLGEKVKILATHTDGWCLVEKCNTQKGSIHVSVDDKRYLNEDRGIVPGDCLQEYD

Row | Binder | SPOT intensity
85 | GRSRLFPHSPLGRSS | 16
86 | HKVLRPFLLRRLKKD | 52
87 | RRASLFPRDPKRLRP | 25
88 | VYTRTAFQIPGDDKI | 0

These binders were tested against T18, Bzz1-1, P38822 (assay: SPOT array). Conditions: median of control spots 4446.
T18 sequence (P38822 478-572, looked up): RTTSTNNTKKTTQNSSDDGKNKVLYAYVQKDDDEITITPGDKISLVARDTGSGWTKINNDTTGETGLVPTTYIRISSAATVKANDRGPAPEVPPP

Row | Binder | SPOT intensity
89 | GRSRLFPHSPLGRSS | 0
90 | HKVLRPFLLRRLKKD | 1
91 | RRASLFPRDPKRLRP | 1
92 | VYTRTAFQIPGDDKI | 0

Each binder was assayed against Bem1-2, P29366 (assay: SPOT array). Conditions: median of control spots 4347.
Chain of Bem1-2, P29366 (P29366 139-227): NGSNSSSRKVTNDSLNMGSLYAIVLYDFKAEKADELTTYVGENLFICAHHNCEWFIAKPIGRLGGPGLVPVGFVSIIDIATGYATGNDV

Row | Binder | SPOT intensity
93 | GRSRLFPHSPLGRSS | 5
94 | HKVLRPFLLRRLKKD | 1
95 | RRASLFPRDPKRLRP | 7
96 | VYTRTAFQIPGDDKI | 0

Each binder was assayed against T19, Pex13, P80667 (assay: SPOT array). Conditions: median of control spots 1341.
T19 sequence (P80667 295-386, looked up): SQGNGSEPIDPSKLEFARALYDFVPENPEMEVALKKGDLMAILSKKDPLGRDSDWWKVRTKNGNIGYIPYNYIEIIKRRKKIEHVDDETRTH

Row | Binder | SPOT intensity
97 | GRSRLFPHSPLGRSS | 4
98 | HKVLRPFLLRRLKKD | 0
99 | RRASLFPRDPKRLRP | 2
100 | VYTRTAFQIPGDDKI | 0

Each binder was assayed against T20, Boi2, P39969 (assay: SPOT array). Conditions: median of control spots 1161.
T20 sequence (P39969 32-116, looked up): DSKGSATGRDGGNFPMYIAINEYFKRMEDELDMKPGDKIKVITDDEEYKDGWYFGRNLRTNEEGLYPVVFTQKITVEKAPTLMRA

Row | Binder | SPOT intensity
101 | GRSRLFPHSPLGRSS | 1
102 | HKVLRPFLLRRLKKD | 0
103 | RRASLFPRDPKRLRP | 8
104 | VYTRTAFQIPGDDKI | 0

What follows are binders tested against T21, Myo5, Q04439 (assay: SPOT array). Conditions: median of control spots 471.
T21 sequence (Q04439 1072-1160, looked up): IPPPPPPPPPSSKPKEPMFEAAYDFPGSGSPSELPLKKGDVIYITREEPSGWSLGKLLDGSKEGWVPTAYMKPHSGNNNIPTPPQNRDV

Row | Binder | SPOT intensity
105 | GRSRLFPHSPLGRSS | 0
106 | HKVLRPFLLRRLKKD | 0
107 | RRASLFPRDPKRLRP | 1
108 | VYTRTAFQIPGDDKI | 0
